From publication doi:10.1101/2021.03.09.434456 (bioRxiv, 2021) come the findings set out here.

In general, Kd refers to the concentration at which binding is half-saturated. In general, stoichiometry N refers to a count of units in the complex or per binding partner. Usually koff stands for a measure of how fast the partners let go of each other.

The series “crystal structure” concerns the molecule itself. Description: crystal structure.
The series “AUC” deals with the molecule itself. Briefly: AUC.
The series “AUC + SEC” concerns the molecule itself. Description: AUC + SEC.

B1: mouse Kirrel2 D1 (domain or fragment)
chain: PHFLQQPEDMVVLLGEEARLPCALGAYRGLVQWTKDGLALGGERDLPGWSRYWISGNSASGQHDLHIKPVELEDEASYECQASQAGLRSRPAQLHVMVP
Take B1: the binding result in the series “crystal structure” is “binds”.

B2: mouse Kirrel3 WT ectodomain (domain or fragment, UniProt Q8BR86 22-535, looked up)
chain: LQKRGCCLVLGYMAKDKFRRMNEGQVYSFSQQPQDQVVVSGQPVTLLCAIPEYDGFVLWIKDGLALGVGRDLSSYPQYLVVGNHLSGEHHLKILRAELQDDAVYECQAIQAAIRSRPARLTVLVPPDDPIILGGPVISLRAGDPLNLTCHADNAKPAASIIWLRKGEVINGATYSKTLLRDGKRESIVSTLFISPGDVENGQSIVCRATNKAIPGGKETSVTIDIQHPPLVNLSVEPQPVLEDNIVTFHCSAKANPAVTQYRWAKRGHIIKEASGELYRTTVDYTYFSEPVSCEVTNALGSTNLSRTVDVYFGPRMTSEPQSLLVDLGSDAVFSCAWIGNPSLTIVWMKRGSGVVLSNEKTLTLKSVRQEDAGKYVCRAVVPRVGAGEREVTLTVNGPPIISSTQTQHALHGEKGQIKCFIRSTPPPDRIAWSWKENVLESGTSGRYTVETVNTEEGVISTLTISNIVRADFQTIYNCTAWNSFGSDTEIIRLKEQGSEMKSGAGLEAESVPMA
In the case of B2, in the series “AUC”, the affinity, expressed as Kd, was 210 nM and the “stoichiometry N” value worked out at 2. The koff in the series “AUC + SEC” was more than 0.001 s⁻¹.

B3: mouse Kirrel3 D1 (domain or fragment)
chain: VYSFSQQPQDQVVVSGQPVTLLCAIPEYDGFVLWIKDGLALGVGRDLSSYPQYLVVGNHLSGEHHLKILRAELQDDAVYECQAIQAAIRSRPARLTVLVP
Consider B3, for which the binding result in the series “crystal structure” is “binds”.

B4: mouse Kirrel2 WT ectodomain (domain or fragment, UniProt Q7TSU7 20-507, looked up)
chain: SPHFLQQPEDMVVLLGEEARLPCALGAYRGLVQWTKDGLALGGERDLPGWSRYWISGNSASGQHDLHIKPVELEDEASYECQASQAGLRSRPAQLHVMVPPEAPQVLGGPSVSLVAGVPGNLTCRSRGDSRPAPELLWFRDGIRLDGSSFHQTTLKDKATGTVENTLFLTPSSHDDGATLICRARSQALPTGRDTAVTLSLQYPPMVTLSAEPQTVQEGEKVTFLCQATAQPPVTGYRWAKGGSPVLGARGPRLEVVADATFLTEPVSCEVSNAVGSANRSTALEVLYGPILQAKPKSVSVDVGKDASFSCVWRGNPLPRITWTRMGGSQVLSSGPTLRLPSVALEDAGDYVCRAEPRRTGLGGGKAQARLTVNAPPVVTALQPAPAFLRGPARLQCVVFASPAPDSVVWSWDEGFLEAGSLGRFLVEAFPAPEVEGGQGPGLISVLHISGTQESDFTTGFNCSARNRLGEGRVQIHLGRRDLLPTVR
Turning to B4, in the series “AUC”, the Kd stood at 900 nM and the “stoichiometry N” value came to 2. For the same protein, the koff in “AUC + SEC” was more than 0.001 s⁻¹.
